Source: paper PMC9482650, “Quantitative fragmentomics allow affinity mapping of interactomes” (Nature Communications, 2022)
Changes are numbered by the printed parent chain.

How the values were obtained:
Experiment in all cases: holdup assay
Parameters in all cases: key: below the threshold = too weak to quantify, mostly under pKd 3.1 to 4
ARHGAP21, Q5T5U3 = target: T1, ARHGAP21, Q5T5U3
T1 sequence (Q5T5U3 45-169, limits assumed, looked up): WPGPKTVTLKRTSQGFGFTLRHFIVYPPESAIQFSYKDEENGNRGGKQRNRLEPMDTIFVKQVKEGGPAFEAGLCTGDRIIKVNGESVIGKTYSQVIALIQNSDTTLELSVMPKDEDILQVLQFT

DLG1_1, Q12959 = target: DLG1_1, Q12959
DLG1_2, Q12959 = target: DLG1_2, Q12959
DLG1_3, Q12959 = target: DLG1_3, Q12959
DLG2_2, Q15700 = target: DLG2_2, Q15700
Sequence of DLG2_2, Q15700 (Q15700 189-283): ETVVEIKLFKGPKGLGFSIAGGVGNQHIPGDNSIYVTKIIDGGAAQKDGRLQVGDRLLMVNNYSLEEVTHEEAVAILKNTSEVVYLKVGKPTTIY

DLG3_3, Q92796 = target: T2, DLG3_3, Q92796
T2 sequence (Q92796 374-475, limits assumed, looked up): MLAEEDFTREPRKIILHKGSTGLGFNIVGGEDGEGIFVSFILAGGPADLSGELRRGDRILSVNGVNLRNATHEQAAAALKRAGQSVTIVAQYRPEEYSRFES

FRMPD4, Q14CM0 = target: FRMPD4, Q14CM0
Sequence of FRMPD4, Q14CM0 (Q14CM0 67-160): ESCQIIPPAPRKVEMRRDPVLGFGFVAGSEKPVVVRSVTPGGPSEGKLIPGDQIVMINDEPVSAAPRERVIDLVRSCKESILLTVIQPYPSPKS

GRASP, Q7Z6J2 = target: GRASP, Q7Z6J2
Sequence of GRASP, Q7Z6J2 (Q7Z6J2 96-193): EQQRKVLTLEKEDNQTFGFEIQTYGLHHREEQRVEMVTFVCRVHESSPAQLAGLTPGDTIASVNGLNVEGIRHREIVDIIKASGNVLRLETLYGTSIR

GRIP2_3, Q9C0E4 = target: GRIP2_3, Q9C0E4
Sequence of GRIP2_3, Q9C0E4 (Q9C0E4 238-339): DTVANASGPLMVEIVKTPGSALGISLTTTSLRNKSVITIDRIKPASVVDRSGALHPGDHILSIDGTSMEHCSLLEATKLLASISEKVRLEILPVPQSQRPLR

GRIP2_5, Q9C0E4 = target: GRIP2_5, Q9C0E4
Sequence of GRIP2_5, Q9C0E4 (Q9C0E4 544-642): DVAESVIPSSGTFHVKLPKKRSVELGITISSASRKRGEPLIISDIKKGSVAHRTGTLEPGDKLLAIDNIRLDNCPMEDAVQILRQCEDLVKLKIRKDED

GRIP2_7, Q9C0E4 = target: GRIP2_7, Q9C0E4
Sequence of GRIP2_7, Q9C0E4 (Q9C0E4 934-1023): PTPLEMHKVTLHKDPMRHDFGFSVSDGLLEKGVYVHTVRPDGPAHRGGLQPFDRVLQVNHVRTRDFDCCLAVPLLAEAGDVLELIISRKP

IL16_3, Q14005 = target: IL16_3, Q14005
Sequence of IL16_3, Q14005 (Q14005 1107-1207): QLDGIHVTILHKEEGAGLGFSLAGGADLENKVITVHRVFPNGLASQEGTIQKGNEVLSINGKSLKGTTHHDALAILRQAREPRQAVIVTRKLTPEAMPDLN

Inadl_10, Q8NI35 = target: Inadl_10, Q8NI35
Sequence of Inadl_10, Q8NI35 (Q8NI35 1673-1763): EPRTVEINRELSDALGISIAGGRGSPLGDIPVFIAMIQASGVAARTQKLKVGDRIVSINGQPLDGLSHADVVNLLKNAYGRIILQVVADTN

Inadl_5, Q8NI35 = target: Inadl_5, Q8NI35
Sequence of Inadl_5, Q8NI35 (Q8NI35 673-780): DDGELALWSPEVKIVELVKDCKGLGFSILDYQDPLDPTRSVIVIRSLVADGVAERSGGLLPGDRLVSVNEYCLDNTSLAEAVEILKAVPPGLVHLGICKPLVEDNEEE

LDB3, O75112 = target: LDB3, O75112
Sequence of LDB3, O75112 (O75112 1-94): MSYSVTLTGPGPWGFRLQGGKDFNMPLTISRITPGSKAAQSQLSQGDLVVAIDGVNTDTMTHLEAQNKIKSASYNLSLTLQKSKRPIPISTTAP

LIN7A, O14910 = target: T3, LIN7A, O14910
T3 sequence (O14910 103-200, limits assumed, looked up): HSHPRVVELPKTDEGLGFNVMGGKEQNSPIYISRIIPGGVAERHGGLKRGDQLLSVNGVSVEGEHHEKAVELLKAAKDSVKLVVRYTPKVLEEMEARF

LIN7B, Q9HAP6 = target: T4, LIN7B, Q9HAP6
T4 sequence (Q9HAP6 88-185, limits assumed, looked up): T3 sequence (O14910 103-200, limits assumed, looked up) with S2A, V20I, I35V, E42D, H65Q, K77Q, D78G, K89R

LNX1_3, Q8TBB1 = target: LNX1_3, Q8TBB1
Sequence of LNX1_3, Q8TBB1 (Q8TBB1 500-596): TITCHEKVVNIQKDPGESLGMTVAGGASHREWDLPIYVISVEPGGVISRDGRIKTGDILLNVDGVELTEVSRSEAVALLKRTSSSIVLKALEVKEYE

MAGI3_2, Q5TCQ9 = target: MAGI3_2, Q5TCQ9
Sequence of MAGI3_2, Q5TCQ9 (Q5TCQ9 398-503): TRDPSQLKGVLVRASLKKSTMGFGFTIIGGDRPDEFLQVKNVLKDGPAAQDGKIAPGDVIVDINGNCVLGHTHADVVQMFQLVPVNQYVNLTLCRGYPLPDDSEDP

MAST2, Q6P0Q8 = target: MAST2, Q6P0Q8
Sequence of MAST2, Q6P0Q8 (Q6P0Q8 1099-1202): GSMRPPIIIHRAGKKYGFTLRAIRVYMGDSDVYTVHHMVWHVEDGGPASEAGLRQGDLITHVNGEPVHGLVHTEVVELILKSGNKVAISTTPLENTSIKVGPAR

MPDZ_5, O75970 = target: T5, MPDZ_5, O75970
T5 sequence (O75970 695-796, limits assumed, looked up): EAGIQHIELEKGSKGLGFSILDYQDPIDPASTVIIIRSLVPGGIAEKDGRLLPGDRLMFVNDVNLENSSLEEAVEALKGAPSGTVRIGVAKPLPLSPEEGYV

PARD3B_1, Q8TEW8 = target: T6, PARD3B_1, Q8TEW8
T6 sequence (Q8TEW8 196-299, limits assumed, looked up): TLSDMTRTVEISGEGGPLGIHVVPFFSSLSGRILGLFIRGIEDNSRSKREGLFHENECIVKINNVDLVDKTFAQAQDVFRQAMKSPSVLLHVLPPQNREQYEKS

PCLO, Q9Y6V0 = target: T7, PCLO, Q9Y6V0
T7 sequence (Q9Y6V0 4491-4600, limits assumed, looked up): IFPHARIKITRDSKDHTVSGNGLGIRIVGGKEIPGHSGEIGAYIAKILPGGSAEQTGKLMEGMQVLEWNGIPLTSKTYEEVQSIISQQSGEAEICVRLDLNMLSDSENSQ

PDZD7_3, Q9H5P4 = target: T8, PDZD7_3, Q9H5P4
T8 sequence (Q9H5P4 857-944, limits assumed, looked up): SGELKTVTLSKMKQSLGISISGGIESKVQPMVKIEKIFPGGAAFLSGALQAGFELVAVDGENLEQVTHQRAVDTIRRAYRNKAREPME

PICK1, Q9NRD5 = target: PICK1, Q9NRD5
Sequence of PICK1, Q9NRD5 (Q9NRD5 17-115): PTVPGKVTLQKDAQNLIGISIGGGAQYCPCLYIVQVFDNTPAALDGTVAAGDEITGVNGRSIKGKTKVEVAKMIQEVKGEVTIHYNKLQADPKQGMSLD

SNTG2, Q9NY99 = target: T9, SNTG2, Q9NY99
T9 sequence (Q9NY99 68-166, limits assumed, looked up): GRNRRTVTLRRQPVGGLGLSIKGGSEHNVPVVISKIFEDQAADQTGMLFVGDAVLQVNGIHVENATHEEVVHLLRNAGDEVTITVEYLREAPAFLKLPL

TJP1_3, Q07157 = target: TJP1_3, Q07157
Sequence of TJP1_3, Q07157 (Q07157 416-512): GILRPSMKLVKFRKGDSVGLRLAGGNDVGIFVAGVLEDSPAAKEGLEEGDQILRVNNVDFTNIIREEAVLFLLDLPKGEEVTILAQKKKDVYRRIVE

TX1BP3, O14907 = target: T10, TX1BP3, O14907
T10 sequence (O14907 10-122, limits assumed, looked up): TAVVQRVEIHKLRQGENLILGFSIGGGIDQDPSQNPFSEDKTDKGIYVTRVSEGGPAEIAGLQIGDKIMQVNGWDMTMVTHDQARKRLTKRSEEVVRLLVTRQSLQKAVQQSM

[1] = plain residues with an end cap or a label only (N-terminal biotin on a linker: ahx)
[2] = plain residues with an end cap or a label only (N-terminal biotin on a linker: ado-ado)

B1: RGS12, O14924 (peptide)
chain: KTSAHHATFV
With B1 the pKd (ARHGAP21, Q5T5U3; [1]) was “below the threshold”, the pKd (DLG1_1, Q12959; [1]) was 3.93 and the pKd (DLG1_2, Q12959; [1]) was 4.15. The pKd (DLG1_3, Q12959; [1]) was “below the threshold”, the pKd (DLG2_2, Q15700; [1]) was 4.01 and the pKd (DLG3_3, Q92796; [1]) was “below the threshold”. The pKd (FRMPD4, Q14CM0; [1]) was “below the threshold”, the pKd (GRASP, Q7Z6J2; [1]) was 4.12 and the pKd (GRIP2_3, Q9C0E4; [1]) was “below the threshold”. For the same binder, the pKd (GRIP2_5, Q9C0E4; [1]) was “below the threshold”, the pKd (GRIP2_7, Q9C0E4; [1]) was 3.72 and the pKd (IL16_3, Q14005; [1]) was “below the threshold”. The pKd (Inadl_10, Q8NI35; [1]) was 3.91, the pKd (Inadl_5, Q8NI35; [1]) was 3.86 and the pKd (LDB3, O75112; [1]) was “below the threshold”. The pKd (LIN7A, O14910; [1]) was “below the threshold”, the pKd (LIN7B, Q9HAP6; [1]) was “below the threshold” and the pKd (LNX1_3, Q8TBB1; [1]) was “below the threshold”. It also gave a pKd (MAGI3_2, Q5TCQ9; [1]) of 4.72, a pKd (MAST2, Q6P0Q8; [1]) of 4.33 and a pKd (MPDZ_5, O75970; [1]) of 3.58. The pKd (PARD3B_1, Q8TEW8; [1]) was “below the threshold”, the pKd (PCLO, Q9Y6V0; [1]) was “below the threshold” and the pKd (PDZD7_3, Q9H5P4; [1]) was 4.31. For the same binder, the pKd (PICK1, Q9NRD5; [1]) was “below the threshold”, the pKd (SNTG2, Q9NY99; [1]) was “below the threshold” and the pKd (TJP1_3, Q07157; [1]) was “below the threshold”. The pKd (TX1BP3, O14907; [1]) was 3.78.

B2: HTR2C, P28335 (peptide)
chain: SVVSERISSV
With B2 the pKd (ARHGAP21, Q5T5U3; [2]) was “below the threshold”, the pKd (DLG1_1, Q12959; [2]) was 4.07 and the pKd (DLG1_2, Q12959; [2]) was 4.74. For the same binder, the pKd (DLG1_3, Q12959; [2]) was “below the threshold”, the pKd (DLG2_2, Q15700; [2]) was 4.4 and the pKd (DLG3_3, Q92796; [2]) was “below the threshold”. The pKd (FRMPD4, Q14CM0; [2]) was “below the threshold”, the pKd (GRASP, Q7Z6J2; [2]) was 4.55 and the pKd (GRIP2_3, Q9C0E4; [2]) was “below the threshold”. The pKd (GRIP2_5, Q9C0E4; [2]) was “below the threshold”, the pKd (GRIP2_7, Q9C0E4; [2]) was “below the threshold” and the pKd (IL16_3, Q14005; [2]) was “below the threshold”. The pKd (Inadl_10, Q8NI35; [2]) was “below the threshold”, the pKd (Inadl_5, Q8NI35; [2]) was “below the threshold” and the pKd (LDB3, O75112; [2]) was “below the threshold”. For the same binder, the pKd (LIN7A, O14910; [2]) was “below the threshold”, the pKd (LIN7B, Q9HAP6; [2]) was 3.7 and the pKd (LNX1_3, Q8TBB1; [2]) was “below the threshold”. For the same binder, the pKd (MAGI3_2, Q5TCQ9; [2]) was 4.46, the pKd (MAST2, Q6P0Q8; [2]) was 4.78 and the pKd (MPDZ_5, O75970; [2]) was “below the threshold”. For the same binder, the pKd (PARD3B_1, Q8TEW8; [2]) was “below the threshold”, the pKd (PCLO, Q9Y6V0; [2]) was “below the threshold” and the pKd (PDZD7_3, Q9H5P4; [2]) was 4.26. For the same binder, the pKd (PICK1, Q9NRD5; [2]) was “below the threshold”, the pKd (SNTG2, Q9NY99; [2]) was “below the threshold” and the pKd (TJP1_3, Q07157; [2]) was “below the threshold”. It also gave a pKd (TX1BP3, O14907; [2]) of 4.06.
